Data as given in the DeepSol protein solubility set.

Assay: soluble on expression in E. coli; label from the status in PepcDB or PDB records

Question: Which “soluble on expression in E. coli” value does the source give for “MKKDAKDHARNRLMDCYIKKAPTYAAIVKIEHFENDDASSKDFEPFVVYSLNKKKRWEINEESLNSSTEGTSTKSVIIDREIPDLQDSWWCLQNDLLNNCIYHSNPVNSAQMATAKKYEKVIGYHIVRIPVNHKKVFDKKCTRDLSYRYRDSIGNVPRDLTVLQYEMKEVEHGKEDFAKENISPEVNNPSKTIGFYNLEEHFVARKQQKSKGWLTVN” here?
Answer: The value was “not soluble”.

Question: With “GPGSMLGSPSDPPPRDAAGDAAAPVSAASSPSAALPVAAVYSTGSQALQAELHQLRERLRVSDEWNMRLQLQLQELLQLPQNEVQDMRQRMQDPDIAIPLLQCYDAVIHEKTEEVERLRREAVDLQTQLDAFRKDQLDVSNAVRMAEELAKSVQGKAAAEVQRYLEAVRELQEELVRLRIEVTRALDAENIAKQDALRIAERAASLETALEAAKQATSKAEAAREAAERKWTIQEQQAEEQEMGAVVQKAQLQRITQENADKAQELERLRAKMTHALRQASDNHAAHLRIVEERHRMIVEDLRSVNRTQELEVLKLRAQLARCDMTNPSGAGRGTGASSASTSSLRLQSTAELLEAQTRQAQEMELKRLHGEVSALQLQRDDAVRQCEQRTSRLQRDFDQQLQDAQRQLQSAQRSFSEARSRCEELEETKAAQEASLRKARDELRQAQQGGQQYRLSADSSARKLASAQQQLAEASKRFSTLQEEKQSAVRQAHERVSELEANVAQALQEVQSAKERAYAEVEEVQRRYEQLRLQNSKLQDDLREREAALVKKERERSILVAQIGRLEDGLEAHKRQMMESDRRVQQLEQQLIAMRQQQREGFLSLEQVKLQNAQLTRTRDQLAEMLQARSL” as the sequence, how does the “soluble on expression in E. coli” value read?
Answer: Its value is “not soluble”.

Question: For “MMKLRIEIDGNLEETEIVIKTPTLTDEIADLQRLLQESKAPRLTFYKGTGEYYLDLSEILFFETEGSKIYAHNQKEAYEVRLKLYELESILPRYFNRVSKSTIANIRQIYSVDKSFSGTGTISFYQTHKEVHVSRHYQSLLKENLRNMR”, which “soluble on expression in E. coli” value is on record?
Answer: The value was “not soluble”.

Question: Which “soluble on expression in E. coli” value does the source give for “MARPETESKTIFGKRLRYVRLALGDPSREALAKSFSMTKNSIAFYERGEREPNLSVLQTYRTLYGVNINWLLTGQGKMFDTEYTKGDFDWNYFIKKIEGLEEILSNSDRSEKLNQEKIESSYEKLQQYLSRQGSTNRYTPKAATSLIDMKAKMANSYALSLFIDLLIRSISQKEVVANQ” here?
Answer: The value was “not soluble”.

Question: For “MSLNVLIVDDEANIRKTLTVFMESRGHRVKAVSNSRDACAEAEQQVFDLAFVDIRLGIESGLDLERSLLNACPWIKIVIITAYASIETAVEAMKRGASDYLAKPFTPDQLESITARLAEVCAMEMRIASLQEDLNRMHPEVYFTSRYPSMQRAIELSRQVALSDALVLLRGPSGTGKTVLARSIHNWSQRKEEPFGVVSCPSLSTELLESELFGHVKGSFPGAVRDKPGRVTLCEGGSLFLDEIGDLPLSIQAKLLRFIQDREYERIGDHQTRKADVRIIAATNTNLDLAVREGEFREDLFYRLNGIQIDLPTLAERPNDVEQLALNMLQFFAAQNLKNFDGFTEEARTALRTYSWPGNIRELRNVMERAVILGKNGQIGIELLPDSIVAKTHPVTEGHHHHHH”, which “soluble on expression in E. coli” value is on record?
Answer: Its value is “soluble”.

Question: Which “soluble on expression in E. coli” value does the source give for “MDPALAAQMSEAVAEKMLQYRRDTAGWKICREGNGVSVSWRPSVEFPGNLYRGEGIVYGTLEEVWDCVKPAVGGLRVKWDENVTGFEIIQSITDTLCVSRTSTPSAAMKLISPRDFVDLVLVKRYEDGTISSNATHVEHPLCPPKPGFVRGFNHPCGCFCEPLPGEPTKTNLVTFFHTDLSGYLPQNVVDSFFPRSMTRFYANLQKAVKQFHE” here?
Answer: The value was “soluble”.

Question: For “ETEPGHALVIWHDSTNEYYTMQQLTLAYEESRLLFEKAPQGIAMLDPSGEIVMANRSFGDLVGTTPVRLLGRNLEDFGVEEGTMEYVTPVLSDPEAVVHLDRSLETLRGKQKNVAMSFSSMGNVG”, which “soluble on expression in E. coli” value is on record?
Answer: The value was “not soluble”.

Question: Which “soluble on expression in E. coli” value does the source give for “MAGDPMYSLFQEGRKMKNTAFLITKNHYPKDYRLKKSPDSDSAMGVAKRILAEVMIFRRVPETISLCGTGCQKCASPHLPKIISAVNKNEPVTFILPAFPGKSPNPEKVLGHLPDHAERLSLNFLGTLCQRIKNFYTPGIKIILCSDGRVFSDVVGMNESDVTAYQLELDRLIKEMSLADLSTFNLDYFYKDLHFVQMREELMKSYGQSLDFLKQKIRNGAKPSASPDEQEANRMYSGITRFLFEDAMHAGQTKSRTAIQKESRFKAYEVIRRSNAWSALIAERFPKAVRLSIHPQTCGSKKLGIRLIGNESWMTPWHGVAVESNKGYVLLRRSEAEALGAKLICSSDGRHSHYQLMAEVSYELAAALEHHHHHH” here?
Answer: Its value is “soluble”.

Question: With “MSSCSSLQSSSSRGASTDSLNTTSNGFSDGGSNLLPPKPNRIGCAATGAQSETDLRFVTSRDTHSSIPLNEPFGFGEKSPRAFMSENDLSAGAAGASTDFPEVTRTPSYLRISCALNGYTKSPNKSDLTPIAPHPPVSTMGESFVERRSRMFSQPQQRNPAPGFSSPLPPTTVSSQSASSEIEWSVEKF” as the sequence, how does the “soluble on expression in E. coli” value read?
Answer: The value was “not soluble”.

Question: With “MSLLREKAVPIRIPDQLPASDVLRNENIFVMSESRASTQEIRPLKVLLLNLMPKKIETETQFLRLLSNSPLQVDIELLRIDDRPSKNTPEEHLNTFYRQFELVKNRNFDGLIITGAPLGLVQFEDVAYWQHLQNIMAWAKAHVTSTLYICWAAQAGLKLLYNLPKRTREEKLSGVYYHDIHKPFHPLLRGFDDRFLAPHSRYADFDAEFLAEHTDLDILATSDVAGVYLAATKDKRNVFVTGHPEYDAYTLHGEYVRDLGEGLNPAIPVNYYPNDNPDNKPCASWRSHGHLLFANWLNYCVYQQTPYDLEKFSEANFTKDEEGHHHHHH” as the sequence, how does the “soluble on expression in E. coli” value read?
Answer: Its value is “soluble”.

Question: For “MFKVNEYFDGTVKSIAFSQAEGQATIGVMAAGEYEFGTAQREIMHVISGELNVKLPDSTDWETFSTGSQFNVPANSKFQLKVSVDTAYLCEYR”, which “soluble on expression in E. coli” value is on record?
Answer: The value was “not soluble”.

Question: For “MGSDKIHHHHHHMRTHGWNSTCVNRPSGSANSRRLVAHGNGWQTIDMDFAARYVALGDSFTEGVGDDDPARPNGVRGWADRVAEQLGAADPAFGYANLAIRGRKLRQIMAEQVDAAIELKPTLVTIYAGANDILRPKVDIDDLLAEYDAGIRKLSATGATVVMFTGFDARGSKVFGTMRGRTAIYNELVRGIAGDHGALLVDYWRFSEYYDWGMWAKDRMHMSAAGHANMAKRVLTVLEHDHSIDVPPMTPVPELSRADAIRANARWVREFAGPWVVRRVTGKSSGDGLQPRYSQLTRL”, which “soluble on expression in E. coli” value is on record?
Answer: Its value is “not soluble”.

Question: Which “soluble on expression in E. coli” value does the source give for “MEVQTETYRAAMNGTLERHFSDMIAVIPTRITIEQLKQRLENIATKVDELKIVYSDETSLIVELHMDETIIPYELHIDEANDPEEYKMYNRQDSTIVDRNFEDAAFGTEIFTRTLFVGDVLDCFFQQIQFLWNLAPDLLFVIDSSAAMKVISRNYIEYHVENELLPDIPDLYVIHSVYEDDKEGEPTQYWFHTHGLLRAGVTEIELIIPNRISSYYGIGDLFQTFANNAVENGQVPMNEPIVIAHSQQGSIHTVAVPWEKGLSYIGHKTSMDQLSSIEDEEVKLQPIDAQNTFLGGMDARDEYHQSPSVLLFKFNTSEEYIESFFKEHEEATGLMFYKTNSETDRMAYNAKNTFGYFSNIFQIEKSNEEFRFLAKFGVSYEEGKSEHMWFEMQHITEDLIQGILINEPYFIEDMSEGNSYHLDFDNLTDWVIYAGDAVIKPNNLYMFIGE” here?
Answer: Its value is “not soluble”.

Question: Which “soluble on expression in E. coli” value does the source give for “MSLYKVYGDYQSGNCYKVKLMLSLLGRPYEWHPVDILKGETETPEFLAMNPNGKVPVLELEDGSYLWESNAILNYLADGSEFLPSEPRLRTQVLQWQFFEQYSHEPYIAVARFIQFYLGLPDERLDEYRKLHKGGYKALKVMERQLQMTPYLVGEQYSIADVALYAYTHVAQQGGFDLADYPAVRAWLERVSSHPRHVPMVGEGHHHHHH” here?
Answer: Its value is “soluble”.

Question: With “RGSHHHHHHGSFTPSGTTGTTKLTVTEECQVRVGDLTVAKTRGQLTDAAPIGPVTVQALGCNARQVALKADTDNFEQGKFFLISDNNRDKLYVNIRPMDNSAWTTDNGVFYKNDVGSWGGTIGIYVDGQQTNTPPGNYTLTLTGGYWAK” as the sequence, how does the “soluble on expression in E. coli” value read?
Answer: The value was “soluble”.

Question: With “MALKLPIPHNILILNRNSALELLRALKEVPKLIITRIPPDEWPDVAYTEYIWLSRVEGPNSVSPTALHVIIERAKTFLDENSGGVIYVDGIEYIMLYEEFKSVAKFLLTLKDIAVVKEGHLILHVDPKTLEDHQMAVLEREFVKINVEETIEKIRGPTLFGALIEEKGLEHHHHHH” as the sequence, how does the “soluble on expression in E. coli” value read?
Answer: Its value is “soluble”.

Question: For “MDSVMRKSLFLLLPLVVTNAHAVYVDVRHEYLDDSKANYDRAYISHRFANGVGFAIEAISKSGGDDTNKAFNDLETQGNEYTISYQFKTGDVAWQPGFVLETGNGYSTYKPYFRATWTLNESWWVGARYRFEYVRRSSDIRDDDTINRMDVWAGYKWNNFDWTIEGIYKKADKYDLYDGGKDNYEYNFRTAYIIDQWSPFVEVGNVSVNSNSDERQTRFRVGIGYTF”, which “soluble on expression in E. coli” value is on record?
Answer: Its value is “not soluble”.

Question: Which “soluble on expression in E. coli” value does the source give for “MSLAQIVNTERHSRLLPAPSSFEEGVVKFGDKEINIGGPLPTLAKDEKLVRVTHSLCPACYRLLPATIFEKEGKLFIRKICPEHGEFEDLYYADSSLYYKFDYWEYEGKGPKVPYVDLKSPCPYNCGLCPMHHQHSALVNLVITNRCDLSCWYCFFYAEKAGYVYEPTLEQIKFMVDQLKKQDITLVIQVTGGEPTLREDIIEIIKMLRENGVKHIQLNSWGGTFAKLYLEDPDKAIKYARALREAGVNTVYMSFDGTTRKTNPKNHWEIPYTLEVFRRAGMTSVVLVPTVIKTVNDNDLGNIVKFAAYNMDVVRSVNFQPVSLTGMMKRNMRAKFRITIPEVIKNIEEQTDGEITKDSWYPIGTSVVFSRLVEALTGKEQFEMANHPSCGAGTYVYVEWRNHEPHFIPISKFIDLEGLLEYLKEKEEELREGANKVWVASKVLYSIRKFIDKEQGPKDFDVYKMLYNIIIHHNYEALGEWHYRTLFLGSMHFMDLYNYDVQRVMRCDIHYVVPDGRVIPFCTYNVLNDLYRDKVLREYQIPLDKWTKEHGENSLGDAIKYKRIASTLENSEIYKNTYKSFQQMEGHHHHHH” here?
Answer: Its value is “not soluble”.

Question: With “MSLGQKGHKDSLYPCGGTPESSLHEALDQCMTALDLFLTNQFSEALSYLKPRTKESMYHSLTYATILEMQAMMTFDPQDILLAGNMMKEAQMLCQRHRRKSSVTDSFSSLVNRPTLGQFTEEEIHAEVCYAECLLQRAALTFLQDENMVSFIKGGIKVRNSYQTYKELDSLVQSSQYCKGENHPHFEGGVKLGVGAFNLTLSMLPTRILRLLEFVGFSGNKDYGLLQLEEGASGHSFRSVLCVMLLLCYHTFLTFVLGTGNVNIEEAEKLLKPYLNRYPKGAIFLFFAGRIEVIKGNIDAAIRRFEECCEAQQHWKQFHHMCYWELMWCFTYKGQWKMSYFYADLLSKENCWSKATYIYMKAAYLSMFGKEDHKPFGDDEVELFRAVPGLKLKIAGKSLPTEKFAIRKSRRYFSSNPISLPVPALEMMYIWNGYAVIGKQPKLTDGILEIITKAEEMLEKGPENEYSVDDECLVKLLKGLCLKYLGRVQEAEENFRSISANEKKIKYDHYLIPNALLELALLLMEQDRNEEAIKLLESAKQNYKNYSMESRTHFRIQAATLQAKSSLENSSRSMVSSVSEGHHHHHH” as the sequence, how does the “soluble on expression in E. coli” value read?
Answer: The value was “soluble”.

Question: With “MSLQKQRFCLDTTAITDSDVRKSLGVSNISESAEKIMDIIAQARVQLDISCHIPYDTVYKELVGFLTREGCAPETLIKVDTWLVKKTPNRYEIKIPAEIFYEYIKDLRERINKGMRISENAMYETALEAYILSKPDEKDREDVLNEVLSKTVNSFRVKYRNALRGGTLDSAPDLDVLLLAKELDAAVVANDEGIEKWAQRLGLRFVNARDFPFILQEYLDLWDKKEGHHHHHH” as the sequence, how does the “soluble on expression in E. coli” value read?
Answer: Its value is “soluble”.
